From publication doi:10.1101/2023.01.23.525191
Several values for one entry are separate records, joined by “and”; a condition that tells them apart may be missing. Equal values may be shown once.

What was measured:
[1] = target: recombinant untagged rat RBPMS-A ΔC20 (rat); experiment: AUC
[2] = target: recombinant untagged rat RBPMS-A ΔC20 (rat); experiment: AUC; remark: listed apart in the source
[3] = target: recombinant untagged rat RBPMS-A ΔC20 (rat); experiment: cross-linking
[4] = target: recombinant untagged rat RBPMS-A ΔC20 (rat); experiment: SEC

With “recombinant untagged rat RBPMS-A ΔC20 (domain or fragment)” as the substance, how does the stoichiometry N [1] read?
Its stoichiometry N is 2.

What about the stoichiometry N [2] of the same substance?
The stoichiometry N was 2 and 3.

And the stoichiometry N [3]?
The stoichiometry N was 3 and 4.

And the stoichiometry N [4]?
Its stoichiometry N is 2.
